According to paper PMC4621360 (2015):

Biological target: FSFG-K (single FSFG site) (Saccharomyces cerevisiae, UniProt P14907)
Assay: NMR

B1: Kap95 (protein)
chain: STAEFAQLLENSILSPDQNIRLTSETQLKKLSNDNFLQFAGLSSQVLIDENTKLEGRILAALTLKNELVSKDSVKTQQFAQRWITQVSPEAKNQIKTNALTALVSIEPRIANAAAQLIAAIADIELPHGAWPELMKIMVDNTGAEQPENVKRASLLALGYMCESADPQSQALVSSSNNILIAIVQGAQSTETSKAVRLAALNALADSLIFIKNNMEREGERNYLMQVVCEATQAEDIEVQAAAFGCLCKIMSLYYTFMKPYMEQALYALTIATMKSPNDKVASMTVEFWSTICEEEIDIAYELAQFPQSPLQSYNFALSSIKDVVPNLLNLLTRQNEDPEDDDWNVSMSAGACLQLFAQNCGNHILEPVLEFVEQNITADNWRNREAAVMAFGSIMDGPDKVQRTYYVHQALPSILNLMNDQSLQVKETTAWCIGRIADSVAESIDPQQHLPGVVQACLIGLQDHPKVATNCSWTIINLVEQLAEATPSPIYNFYPALVDGLIGAANRIDNEFNARASAFSALTTMVEYATDTVAETSASISTFVMDKLGQTMSVDENQLTLEDAQSLQELQSNILTVLAAVIRKSPSSVEPVADMLMGLFFRLLEKKDSAFIEDDVFYAISALAASLGKGFEKYLETFSPYLLKALNQVDSPVSITAVGFIADISNSLEEDFRRYSDAMMNVLAQMISNPNARRELKPAVLSVFGDIASNIGADFIPYLNDIMALCVAAQNTKPENGTLEALDYQIKVLEAVLDAYVGIVAGLHDKPEALFPYVGTIFQFIAQVAEDPQLYSEDATSRAAVGLIGDIAAMFPDGSIKQFYGQDWVIDYIKRTRSGQLFSQATKDTARWAREQQKRQLSL
With B1 the Kd was greater than 216 µM.
